According to publication PMC2674928, “The SARS-Unique Domain (SUD) of SARS Coronavirus Contains Two Macrodomains That Bind G-Quadruplexes”:

Assays:
[1] = target: SUD_(core), the core of the SARS-unique domain (Nsp3 residues 389-652) of SARS coronavirus (SARS coronavirus (strain TOR2)); test: crystal structure
SUD-N = SUD-N (SARS coronavirus strain TOR2, UniProt P0C6U8 1207-1342); test: ZIGE (gel shift); conditions: protein: recombinant; tags: N-terminal His-tag, factor Xa site linker; G4 (oligo(G) known to form quadruplexes)
SUD-M = SUD-M (SARS coronavirus strain TOR2, UniProt P0C6U8 1343-1470); test: ZIGE (gel shift); conditions: protein: recombinant; tags: N-terminal His-tag, factor Xa site linker; G4 (oligo(G) known to form quadruplexes)
SUDcore (SUDc5b) = SUDcore (SUDc5b) (SARS coronavirus strain TOR2, UniProt P0C6U8 1207-1470); test: ZIGE (gel shift); 100 mM KCl; conditions: protein: recombinant; tags: N-terminal His-tag, factor Xa site linker; chain copies: 2; G4
full-length SUD (Nsp3c) = full-length SUD (Nsp3c) (SARS coronavirus strain TOR2, UniProt P0C6U8 1207-1544); test: ZIGE (gel shift); 100 mM KCl; conditions: protein: recombinant; tags: N-terminal His-tag, factor Xa site linker; G4

Molecule | binding result (SUDcore (SUDc5b)) | binding result (full-length SUD (Nsp3c)) | also measured
SUD_(core), the core of the SARS-unique domain (Nsp3 residues 389-652) of SARS coronavirus (domain or fragment) | – | – | stoichiometry N [1]: 2
GGGGGGGGGG (structured_DNA) [(dG)10] | – | – | binding result (SUD-N): binds; binding result (SUD-M): binds
GGGCGCGGGAGGAATTGGGCGGG (structured_DNA) [Bcl-2 promoter G4] | binds | binds | –
UGGGGGGAGGGAGGGAGGGA (structured_RNA) [elastin 3'-NTR RNA G4] | binds | binds | –
UGGGGU (structured_RNA) [UG4U] | binds | – | –
